# From patent US6348586
# Molecular target: human CCR5 transiently expressed on CCC/CD4 cells (human) (UniProt P51681)
# Assay: cell-based or functional assay
# Details: scale: fraction of the reverse-construct negative control
# UniProt P51681, sequence (P51681 whole entry): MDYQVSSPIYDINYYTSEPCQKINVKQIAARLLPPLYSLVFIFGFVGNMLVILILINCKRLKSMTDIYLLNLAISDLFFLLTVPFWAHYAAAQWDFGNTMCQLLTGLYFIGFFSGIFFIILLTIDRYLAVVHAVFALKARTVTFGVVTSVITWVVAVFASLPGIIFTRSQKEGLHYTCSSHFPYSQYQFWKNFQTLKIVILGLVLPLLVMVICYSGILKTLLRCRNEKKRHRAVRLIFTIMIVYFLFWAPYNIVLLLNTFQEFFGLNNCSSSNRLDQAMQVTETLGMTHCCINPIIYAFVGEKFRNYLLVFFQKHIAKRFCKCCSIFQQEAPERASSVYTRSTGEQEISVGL
substance,measurement,value
KSHV viral macrophage inflammatory protein I (vMIP-I) encoded by ORF K6 (ligand),NSI HIV-1 foci generation (immunostaining for retroviral antigen) in CCC/CD4 cells cotransfected with CCR5 and vMIP-I,< 0.5
